Measurements reported in US20130156761A1.

Target: human CX3CR1 with FLAG tag at N-terminus, stably expressed on HEK293T cells (Multispan) (human) (UniProt P49238)
Experiment: cell-based or functional assay

human CX3CR1 with FLAG tag at N-terminus, stably expressed on HEK293T cells (Multispan) (human), sequence (P49238 whole entry): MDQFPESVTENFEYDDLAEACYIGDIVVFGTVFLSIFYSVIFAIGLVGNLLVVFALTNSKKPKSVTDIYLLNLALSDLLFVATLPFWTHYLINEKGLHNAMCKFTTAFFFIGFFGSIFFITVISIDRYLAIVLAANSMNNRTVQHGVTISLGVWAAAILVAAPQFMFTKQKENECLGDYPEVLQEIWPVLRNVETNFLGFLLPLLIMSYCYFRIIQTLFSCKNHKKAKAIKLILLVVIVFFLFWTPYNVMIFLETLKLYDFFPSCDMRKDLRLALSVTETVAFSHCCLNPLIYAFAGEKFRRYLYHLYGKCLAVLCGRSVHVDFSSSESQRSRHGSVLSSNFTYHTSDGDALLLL

- EC80 of calcium flux: 40 nM
Substance: CX3CL1 (control agonist, Peprotech Cat#300-31) (from UniProt P78423 25-100) (ligand)
